Consider one molecule from patent US6749856B1, “Mucosal cytotoxic T lymphocyte responses” (priority 1997, dated 2004).

The test concerns P18IIIB-I10 peptide-pulsed 51Cr labeled P815 targets. Briefly: CTL 51Cr release assay with PP, LP or SP effector cells of immunized mice. It is filed as in vivo, BALB/c mice. Conditions: day 35.

B1: rmIL-12 (protein, UniProt P43431 23-215; P43432 23-335, looked up)
Interleukin-12 subunit alpha: RVIPVSGPARCLSQSRNLLKTTDDMVKTAREKLKHYSCTAEDIDHEDITRDQTSTLKTCLPLELHKNESCLATRETSSTTRGSCLPPQKTSLMMTLCLGSIYEDLKMYQTEFQAINAALQNHNHQQIILDKGMLVAIDELMQSLNHNGETLRQKPPVGEADPYRVKMKLCILLHAFSTRVVTINRVMGYLSSA
Interleukin-12 subunit beta: MWELEKDVYVVEVDWTPDAPGETVNLTCDTPEEDDITWTSDQRHGVIGSGKTLTITVKEFLDAGQYTCHKGGETLSHSHLLLHKKENGIWSTEILKNFKNKTFLKCEAPNYSGRFTCSWLVQRNMDLKFNIKSSSSSPDSRAVTCGMASLSAEKVTLDQRDYEKYSVSCQEDVTCPTAEETLPIELALEARQQNKYENYSTSFFIRDIIKPDPPKNLQMKPLKNSQVEVSWEYPDSWSTPHSYFSLKFFVRIQRKKEKMKETEEGCNQKGAFLVEKTSTEVQCKGGNVCVQAQDRYYNSSCSKWACVPCRVRS
Take B1: the “change in HIV-specific CTL activity in mucosal or systemic sites, rmIL-12 by IP route” value (1 μg IP each day of IR immunization with PCLUS3-18IIIB 50 μg) was “did not lead to significant changes”. Besides, the “change in CTL level in mucosal and systemic sites, rmIL-12 + DOTAP intrarectally with peptide” value (1 μg IR) is listed as “significant increase in the CTL level”. The “induction of mucosal or systemic CTL in IR-immunized IFNγ−/− mice treated mucosally with rmIL-12” value (rmIL-12 1 μg/mouse + DOTAP IR with peptide) is reported as “did not lead to the induction of mucosal or systemic CTL”.
